Laboratory results reported in patent US20210244806A1, “Recombinant Protease Inhibitor-Containing Compositions, Methods for Producing Same and Uses Thereof” (ORAMED LTD., priority 2018, published 2021).

Columns and labels:
chymotrypsin = chymotrypsin (Bos taurus, UniProt P00766); test: Chymotrypsin Inhibition Assay; format: biochemical
Procedure: FIG. 4. Chymotrypsin Inhibition Assay.
Unless indicated otherwise, anti-chymotrypsin activity referred to herein is measured using chymotrypsin having an activity of 40 BTEE units per mg. of chymotrypsin, and is expressed in mg. of chymotrypsin inhibited per mg. of protein being tested. BTEE refers to N-Benzoyl-L-Tyrosine Ethyl Ester (see the directions for Sigma-Aldrich Product No. B6125).
(§1) Protease inhibitor enzymatic activity was verified for the recombinant product, and demonstrable inhibition of chymotrypsin activity was achieved (FIG. 4) as well as inhibition of trypsin activity (FIG. 5).

trypsin = target: T1, trypsin (Bos taurus, UniProt P00760); test: Trypsin Inhibition Assay; format: biochemical
T1 sequence (P00760 24-246): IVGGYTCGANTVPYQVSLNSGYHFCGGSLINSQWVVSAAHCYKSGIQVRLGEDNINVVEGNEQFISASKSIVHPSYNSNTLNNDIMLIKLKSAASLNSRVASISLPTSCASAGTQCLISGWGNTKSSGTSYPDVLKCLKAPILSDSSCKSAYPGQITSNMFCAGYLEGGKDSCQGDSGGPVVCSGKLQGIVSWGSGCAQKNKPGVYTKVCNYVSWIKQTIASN
Procedure: FIG. 5. Trypsin Inhibition Assay.
Unless indicated otherwise, anti-trypsin activity referred to herein is measured using trypsin having an activity of 10,000 BAEE units per mg. of trypsin, and is expressed in mg. of trypsin inhibited per mg. of protein being tested. BAEE refers to Na-Benzoyl-L-Arginine Ethyl Ester Solution (see the directions for Sigma-Aldrich Product No. B4500). For example, in a typical assay, one unit corresponds to the amount of inhibitor that reduces the trypsin activity by one benzoyl-L-arginine ethyl ester unit (BAEE-U). One BAEE-U is the amount of enzyme that increases the absorbance at 253 nm by 0.001 per minute at pH 7.6 and 25° C. See, for example, K. Ozawa, M. Laskowski, 1966, J. Biol. Chem. 241:3955; and Y. Birk, 1976, Meth. Enzymol. 45:700.
as §1

B1: rBBI: recombinant Bowman-Birk type proteinase inhibitor, codon-optimized (SEQ ID NO: 1), secreted from Pichia pastoris GS115, clone B17 (protein, listed as Pichia pastoris)
chain: DDESSKPCCDQCACTKSNPPQCRCSDMRLNSCHSACKSCICALSYPAQCFCVDITDFCYEPCKPSEDDKEN
chymotrypsin; FIG. 4, result in words
  inhibition of chymotrypsin activity compared to purified SBTI purified from soya: far greater inhibition of enzymatic activity
chymotrypsin; FIG. 4, chymotrypsin of 40 BTEE units per mg
  chymotrypsin inhibited by 1 mg inhibitor: 2.3 mg chymotrypsin inhibited by 1 mg inhibitor
trypsin; FIG. 5, result in words
  inhibition of trypsin activity compared to purified SBTI purified from soya: far greater inhibition of enzymatic activity
trypsin; FIG. 5, trypsin of 10,000 BAEE units per mg
  trypsin inhibited by 1 mg inhibitor: 1.7 mg trypsin inhibited by 1 mg inhibitor
